Measurements: the supplement of paper PMC10724198
± gives the standard deviation of the averaged measurements.

Tested on: Saccharomyces cerevisiae
Test: protein stability index of tFT-peptide fusion (C-terminal peptide) (PSI (0-1 scale)); higher = more stable (slower turnover)
Settings: genetic background: wild type; temperature: 30 C
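Also: PSI is a weighted mean of sequencing reads over stability bins, variants kept only with over 10 reads, mCherry proximal and sfGFP distal, peptide attached via GGGS linker.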

Sequence | protein stability index
CVTLPPHPLPPP | 0.6623 ± 0.0058
PCDCAHPVLRPM | 0.634 ± 0.069
TIASGCTWSPGH | 0.645 ± 0.013
GPPPLRLWPLPV | 0.618 ± 0.079
GSGDRSGCGWRG | 0.678 ± 0.025
LELADGRCARSG | 0.8 ± 0.065
SPLTCKSLRAQR | 0.738 ± 0.022
TKRRKKIPENRI | 0.6649 ± 0.0049
TRRFGSIINWVG | 0.59 ± 0.065
TPSPPTLHPPPP | 0.691 ± 0.023
CGGRWGTYYRRV | 0.7 ± 0.042
GGSRGWGAAAGR | 0.766 ± 0.065
EWLCLRGCCVLY | 0.667 ± 0.015
GKRWPSINKGPV | 0.6851 ± 0.0051
PFGSSPLCGSSF | 0.683 ± 0.032
SVSCVSRTVAPS | 0.684 ± 0.027
EESNEERDQEKT | 0.63 ± 0.0065
VLGWRLLPTAGI | 0.703 ± 0.062
ASYFPLRLLGFL | 0.65 ± 0.051
DSVVGFCGYWGG | 0.706 ± 0.088
GSFYGAVYVVPV | 0.669 ± 0.03
KKNETKQEKNTR | 0.689 ± 0.026
QPRLPLPLSSPV | 0.611 ± 0.071
CCLFLACANFFV | 0.551 ± 0.031
FVLLSPRYSPPR | 0.676 ± 0.027
DKNVREGDRETR | 0.685 ± 0.017

Sequence | protein stability index
RRIIISSSYIYE | 0.672 ± 0.012
HLFWSRGICFFR | 0.631 ± 0.062
PLAPSSHLHPSP | 0.75 ± 0.0015
LALRMLWSIVRT | 0.599 ± 0.079
LFPHSLLPPPFF | 0.73 ± 0.042
ELEGKIMNITVW | 0.661 ± 0.024
SHVMLCLHFLFR | 0.498 ± 0.018
FDSYVNHRLNRD | 0.608 ± 0.057
LPNPTSPSPQAA | 0.693 ± 0.025
DSSEGRVRIRIR | 0.714 ± 0.063
VAPAHPPHHRNL | 0.6626 ± 0.0036
VYVEMWGTSENW | 0.653 ± 0.011
GGLVGACTRLSG | 0.657 ± 0.035
VHRFPPAPFCTP | 0.734 ± 0.047
APLRSSCVFLFP | 0.744 ± 0.17
SLSCDITRFVEY | 0.712 ± 0.19
GATLGRQEPGHS | 0.671 ± 0.056
RKKTKKEKSEEI | 0.694 ± 0.031
RHLRSGTRAKVY | 0.678 ± 0.013
RLQSSRQMLVPS | 0.63729 ± 0.00036
TNNLRLKVIGPK | 0.653 ± 0.021
ACRLWWRRGGEG | 0.61 ± 0.045
VSGAAFMSSAFW | 0.753 ± 0.045
QPKEGGRPKKKE | 0.675 ± 0.035
PPPPSPPPILPP | 0.64 ± 0.01
RLFPSPIYLARF | 0.676 ± 0.12

Sequence | protein stability index
EFTGVYLWERGW | 0.7 ± 0.041
LPNLGWTNSSIE | 0.667 ± 0.066
GFAIWRDGKYRR | 0.674 ± 0.022
TRMPTRRNEQIY | 0.683 ± 0.047
PDGFTFVFSPES | 0.648 ± 0.038
SRGGKMRPGGGG | 0.711 ± 0.012
PPARLPLPPPSP | 0.753 ± 0.061
ARGRAVRAAGAS | 0.688 ± 0.088
WSDGGRGGGWGK | 0.656 ± 0.015
VGKTVKQLSLIS | 0.597 ± 0.039
KKKYKKNKKKNK | 0.65 ± 0.033
CFWTSFVWPGCA | 0.684 ± 0.00095
RSVPLLNPGFHY | 0.663 ± 0.026
ENVAKKEKITKK | 0.694 ± 0.02
KELGGSSEITEI | 0.658 ± 0.072
PVSPLFWSAKRL | 0.71061 ± 0.00011
HLSLPTRAPIRH | 0.696 ± 0.019
MESGGVGRVVWR | 0.655 ± 0.079
GGGVSFWLGGVA | 0.633 ± 0.045
VIDTGAGSILEI | 0.7 ± 0.042
LALPSWVRYASR | 0.694 ± 0.016
FNVSCLRPNMGE | 0.712 ± 0.044
GGFFLFAVGVGN | 0.627 ± 0.013
CGRPRGVEPGGA | 0.754 ± 0.12
QVILQHSLGLLD | 0.707 ± 0.014
GGGWRLIVLGWW | 0.585 ± 0.087

Sequence | protein stability index
AGSRGIVREIVL | 0.68 ± 0.052
GVEGDPESKGRV | 0.696 ± 0.068
VERSEGRLGVVG | 0.686 ± 0.08
PPPLPPPLPPPL | 0.705 ± 0.05
GWKLGAGRRGVI | 0.704 ± 0.029
PSSPLSPAPPPP | 0.659 ± 0.015
RAPSTPSGRPSL | 0.65 ± 0.051
LVGGTVYRKPSP | 0.599 ± 0.025
PVSSLPQTLLMF | 0.758 ± 0.22
NFAFPWTSTHAF | 0.699 ± 0.017
VSAPRLRVSCNP | 0.696 ± 0.014
GGGVSCGRWGTG | 0.639 ± 0.086
GGGWGAGVRLTW | 0.757 ± 0.021
GGSRPPPFRPPA | 0.724 ± 0.014
PSPTPPPPRSPS | 0.721 ± 0.029
CIRGFQVRGYFK | 0.791 ± 0.19
LRFGEGILLDWG | 0.723 ± 0.043
PPPPAVPPSPPP | 0.645 ± 0.012
LQCRAEFQRARC | 0.666 ± 0.031
KYKKNNNKKQNQ | 0.704 ± 0.097
GWTGEVGVAAGA | 0.65 ± 0.064
LSCQWNSDSLGV | 0.644 ± 0.1
SNACHTTFGDPI | 0.719 ± 0.0078
